Source: PMC2923024

Assays:
KSRP = biological target: T1, KSRP (UniProt Q92945 1-711); experiment: competition
T1 sequence: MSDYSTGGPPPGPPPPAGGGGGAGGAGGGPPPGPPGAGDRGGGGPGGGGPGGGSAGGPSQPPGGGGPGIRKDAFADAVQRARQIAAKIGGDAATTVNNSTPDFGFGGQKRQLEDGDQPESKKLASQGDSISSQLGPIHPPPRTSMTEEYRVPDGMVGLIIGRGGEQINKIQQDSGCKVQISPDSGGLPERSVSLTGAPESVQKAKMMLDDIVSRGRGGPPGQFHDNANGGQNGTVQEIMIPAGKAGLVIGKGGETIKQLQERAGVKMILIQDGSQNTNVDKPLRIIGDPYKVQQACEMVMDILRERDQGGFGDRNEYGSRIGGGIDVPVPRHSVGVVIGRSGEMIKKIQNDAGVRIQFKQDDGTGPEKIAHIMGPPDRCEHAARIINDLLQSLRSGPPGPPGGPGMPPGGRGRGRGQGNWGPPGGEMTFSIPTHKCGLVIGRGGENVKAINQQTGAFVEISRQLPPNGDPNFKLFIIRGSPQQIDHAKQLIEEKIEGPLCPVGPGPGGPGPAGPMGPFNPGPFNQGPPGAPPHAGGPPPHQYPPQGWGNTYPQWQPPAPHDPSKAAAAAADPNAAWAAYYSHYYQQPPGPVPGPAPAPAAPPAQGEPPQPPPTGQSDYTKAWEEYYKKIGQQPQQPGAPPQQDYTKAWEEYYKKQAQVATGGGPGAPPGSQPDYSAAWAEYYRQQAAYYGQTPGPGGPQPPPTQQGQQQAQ

hnRNP A1 UP1 fragment = hnRNP A1 UP1 fragment (UniProt P09651 1-196); experiment: competition
Chain of hnRNP A1 UP1 fragment (P09651 1-196): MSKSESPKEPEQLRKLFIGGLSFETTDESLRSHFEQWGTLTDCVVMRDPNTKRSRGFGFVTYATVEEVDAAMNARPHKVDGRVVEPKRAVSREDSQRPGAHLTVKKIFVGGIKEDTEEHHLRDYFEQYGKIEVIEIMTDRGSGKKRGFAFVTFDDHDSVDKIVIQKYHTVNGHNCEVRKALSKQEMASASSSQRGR

B1: let-7a-1 loop (structured_RNA)
RNA: GUUGUAUAGUUUUAGGGUCACACCCACCACUGGGAGAUAACUAUACAAUC
binding result (KSRP): binds | binding result (hnRNP A1 UP1 fragment): binds
